Experiment [1] deals with spike protein (RBD region) derived from the South African mutant strain (BA.4 strain) (SARS-CoV-2).
Experiment [2] deals with RBD derived from the Omicron strain (BA.4 and BA.5 strains) (SARS-CoV-2).
Experiment [3] concerns the target RBD derived from the Omicron strain (BA.1 strain; B.1.1.529) (SARS-CoV-2).

These results are taken from patent WO2023190852A1 (dated 2023).

As usually defined, the Kd is the constant that tells how readily two partners part at equilibrium. A higher Kd goes with a looser complex.

B1: natural human IgG antibody (HIG001697) (antibody, V domains shown)
VH: EVQLVESGGGLVQPGGSLRLSCTASEIIVTRNYMTWVRQAPGKGLEWVAQIYPGGTTYYADSVKGRFTISRHNSMNTMYLQMNSLRTEDTAVYYCARSRGGVDDFWGQGTLVTVSS
VL: DIQMTQSPSSLSASVGDRVTITCQASQDINKFLNWYQQKPGHAPKLLIYDALNLEAGVPSRFSGSASGTYFTFTITSLQPEDIATYYCQQYDNIPPTYGGGTKVDIKR
For the molecule B1, the dissociation constant Kd in experiment [1] was 0.282 nM; in experiment [2] it was 9.96 nM; in experiment [3], 1.33 nM.
